Assay results published in patent US5776888A, “Compounds and compositions for delivering active agents” (Emisphere Technologies, Inc., priority 1997, dated 1998).
Where two headings read alike, the source gives them in different places.

Parameters: species or system rats
Settings: rat, in vivo, 1 mg/kg

In the case of interferon, the “Mean peak serum interferon concentration” value is reported as 79±100 and the “Mean peak serum interferon concentration” value (po) is reported as 1951±1857.
